Here are results for three molecules from patent US20240263180, “SMALL COMPLEMENTARY NUCLEIC ACIDS, COMPOSITIONS CONTAINING THE SAME, AND METHODS FOR USE AS ANTIVIRALS” (HOWARD UNIVERSITY, published 2024).

Data set [1] has as its target T1, U2AF65 (UniProt P26368 P26368:2-475). The data set can be described thus: EMSA; native PAGE. As to conditions: label: radiolabel. Background: In EMSA bound probe runs differently from free probe, usually more slowly.
Data set [2] addresses T1, U2AF65. The data set can be described thus: EMSA. As to conditions: label: radiolabel.

T1 sequence (P26368 2-475, one chain of several): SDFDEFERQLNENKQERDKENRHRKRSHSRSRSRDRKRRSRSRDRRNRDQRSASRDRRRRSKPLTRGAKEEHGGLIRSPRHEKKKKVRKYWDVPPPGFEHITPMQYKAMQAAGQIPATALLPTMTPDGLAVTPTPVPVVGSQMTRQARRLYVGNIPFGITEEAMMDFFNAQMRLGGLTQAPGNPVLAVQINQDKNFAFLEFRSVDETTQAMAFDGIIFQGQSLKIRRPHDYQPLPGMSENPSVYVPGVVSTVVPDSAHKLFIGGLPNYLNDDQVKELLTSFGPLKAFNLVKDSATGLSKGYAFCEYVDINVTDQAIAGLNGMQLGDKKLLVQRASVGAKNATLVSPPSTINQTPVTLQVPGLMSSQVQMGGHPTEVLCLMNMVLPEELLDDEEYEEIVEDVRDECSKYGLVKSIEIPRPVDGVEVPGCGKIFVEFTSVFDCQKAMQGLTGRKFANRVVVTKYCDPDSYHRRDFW

For the molecule CACGCCUGUGAAACCGUACUAAGUCUCCCGUGUCUUCUUAUCACCAUCAG (ssRNA) [wt PyA+PyB RNA probe (HCMV MIE intron 4)], the binding result with U2AF65 [1] is reported as “binds”.
With CACGCCUGUGAAACCGUACUAAGUCAGCCGUGUCAAGUUAUCACCAUCAG (ssRNA) [dPyAB probe], the binding result in the data set with U2AF65 [2] is “no binding”.
Turning to CACGCCUGUGAAACCGUACUAAGUCUCCCGUGUCAAGUUAUCACCAUCAG (ssRNA) [dPyB probe], the binding result with U2AF65 [2] is “no binding”.
